The record followed here is the nanobody polyreactivity screen of Harvey et al. (2022).

The data set in a line: yeast display, Sf9 membrane polyspecificity reagent, FACS + sequencing; frameworks hold sequencing errors. In short, it runs like this:
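Genes from sorted yeast were amplified by colony PCR, read by MiSeq 2 × 250 sequencing and filtered on CDR length. These cells carried a synthetic nanobody library in Saccharomyces cerevisiae BJ5465 and were sorted by FACS into low and high (top ~1%) gates on anti-HA and streptavidin fluorescence. Polyreactivity is labelled according to the gate of origin.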
Regarding “QVQLVESGGGLVQAGGSLRLSSAASGITLKRYALGWYRHAPGKERELVAAITGRGGGTNYADSVKGRFTISRDNAKNTVYLQMNSLKPEDTAVYYCAARYLQGRYDYWGQGTQVTVSS”, the “polyreactivity (PSR sort gate)” value is listed as “high polyreactivity”.

For “QVQLVESGGGLVQAGGSLRLSSAASGLTFNYYAMGWYRQAPGKERELVAAISKSGGRTYYADSVKGRFTISRDNAKNTVYLQMNSLKPEDTAVYYCNDVVPRSRYFSWTYDYWGQGTQVTVSS”, the “polyreactivity (PSR sort gate)” value is recorded as “high polyreactivity”.

Take “QVQLVESGGGLVQAGGSLRLSSAASGLTYSVYAMGWYRQAPGKERELVAAISGSGGSTYYADSVKGRFTISRDNAKNTVYLQMNSLKPEDTAVYYCAARYDVHYDGMDYWGLGTQVTVSS”: the “polyreactivity (PSR sort gate)” value was “low polyreactivity”.

Regarding “QVQLVESGGGLVQAGGSLRLSSAASGRIFDTNAMGGYRQAPGKERELVAAISKSGGSTYYADSVKGRFTISRDNAKNTVYLQMNSLKPEDTAVYFCAAKYTSGRVLFEHGYWGQGSQVTVSS”, the “polyreactivity (PSR sort gate)” value is recorded as “low polyreactivity”.

Consider “QVQLVESGGGLVQAGGSLRLSSAASGRIFLRNALGWYRQAPGKERESVAAITRGGSTNYADSVKGRFTISRDNAKNTVYLQMNSLKPEDTAVYYCNARYPVVRYDYWGQGTQVTVSS”, for which the “polyreactivity (PSR sort gate)” value is listed as “high polyreactivity”.

For “QVQLVESGGGLVQAGGSLRLSSAASGRIFQGNSMGWYRQAPGKERELVAAITTSGGSTYYADSVKGRFTISRDNAKNTVYLQMNSLKPEDTAVYYCNVDPRKRSYDYWGQGPQVTVSS”, the “polyreactivity (PSR sort gate)” value was “high polyreactivity”.

As to “QVQLVESGGGLVQAGGSLRLSSAASGRIFSSYAMGWYRQAPGKERELVAAITSGGSTYYADSVKGRFTISRDNAKNTVYLQMNSLKPEDTAVYYCAAVYVQPPATAQHYYYWGQGTQVTVSS”, the “polyreactivity (PSR sort gate)” value was “high polyreactivity”.

Take “QVQLVESGGGLVQAGGSLRLSSAASGRIFVAYAMGWYRQAPAKERELVAAITWSGTSTYADSVKGRFTISRDNAKNTVYLQMNSLKPEDTAVYYCAKKAIVSDQWDKYDYWGQGTQVTVSS”: the “polyreactivity (PSR sort gate)” value was “low polyreactivity”.

Take “QVQLVESGGGLVQAGGSLRLSSAASGRIIRAYAMGWYRQAPGKERELVADISGGSNTNYADSVKGRFTISRDNAKNTVYLQMNSLKPEDTAVYYCAADAGYWESLWYPYGFYWGQGTQVTVSS”: the “polyreactivity (PSR sort gate)” value was “low polyreactivity”.

“QVQLVESGGGLVQAGGSLRLSSAASGRTFAVYAMGWYRQAPGKERELVAAISSGGSTYYADSVKGRFTISRDNAKNTVYLPMNSLKPEDTAVYYCTARWGYRRGDWGQGTQVTVSS”: the “polyreactivity (PSR sort gate)” value is “high polyreactivity”.

Consider “QVQLVESGGGLVQAGGSLRLSSAASGRTFFINAMGWYRQAPGKERDLVATITSGGITNYADSVKGRFTISRDNAKNTDYLQMNSLKPEDTAVYYCAVRWYGKYSGVRYYYWGQGTQVTVSS”, for which the “polyreactivity (PSR sort gate)” value is recorded as “high polyreactivity”.

For the sequence “QVQLVESGGGLVQAGGSLRLSSAASGRTFFPNAMGWYRQAPGKERELVAAISSGGGGTYYADSVKGRFTISRDKAKNTVYLQMNRLKPEDTAVYYCAGRNSKVEEEGNYWGQGTQVTVSS”, the “polyreactivity (PSR sort gate)” value is given as “low polyreactivity”.

With “QVQLVESGGGLVQAGGSLRLSSAASGRTFFYYAMGWYRQAPGKERELVAVISGSGARTYYADSVKGRFTISRDNAKYTVYLQMNSLKPEDTAVYYWIKVFARSRSSRYQAYDYWGQGTQVTVSS”, the “polyreactivity (PSR sort gate)” value is listed as “high polyreactivity”.

In the case of “QVQLVESGGGLVQAGGSLRLSSAASGRTFPSYAMGWYRQAPGKERELVAAISSSGGSTYYADSVKGRFTISRDNAKNTFYLQMNSLKPEDTAVYYCNKQFPYAKYYIMGYWGQGTQVTVSS”, the “polyreactivity (PSR sort gate)” value is listed as “high polyreactivity”.

As to “QVQLVESGGGLVQAGGSLRLSSAASGRTFTVNAMGSYRQAPGKERELVAAISQRGASTYYADSVKGRFTISRDNAKNTVYLQMNSLKPVDTAVYYCAAHLRYKYDYWGQGTQVTVSS”, the “polyreactivity (PSR sort gate)” value is reported as “high polyreactivity”.

Regarding “QVQLVESGGGLVQAGGSLRLSSAASGRTFTYYAMGWYRQAPGTERELVAAISSGGRTDYADSVKGRFTISRDNAKNTVYLQMNSLKPEDTAVYYCNARPKVYYREYDYWGQGNQVTVSS”, the “polyreactivity (PSR sort gate)” value is given as “high polyreactivity”.
